Source: publication PMC9433092, “Closely related type II-C Cas9 orthologs recognize diverse PAMs”
Substitutions are numbered along the chain they refer to.

B1: VEGFA V21 (mixed)
RNA: GUCUCGAGGUAGCCCCAGCCCGGGUUGUAGCUCCCUUUCUCAUUUCGGAAACGAAAUGAGAACCGUUGCUACAAUAAGGCCGUCUGAAAAGAUGUGCCGCAACGCUCUGCCCCUUAAAGCUUCUGCUUUAAGGGGCAUCGUUUAUUUUUUU
DNA 1: TCTCGAGGTAGCCCCAGCCCGGGGATCCAG
DNA 2: CTGGATCCCCGGGCTGGGGCTACCTCGAGA
B2: VEGFA V54 (mixed)
RNA: GCUGUCCCCUCCUGAGCCCAUGGGUUGUAGCUCCCUUUCUCAUUUCGGAAACGAAAUGAGAACCGUUGCUACAAUAAGGCCGUCUGAAAAGAUGUGCCGCAACGCUCUGCCCCUUAAAGCUUCUGCUUUAAGGGGCAUCGUUUAUUUUUUU
DNA 1: CTGTCCCCTCCTGAGCCCATGGGCAACCAT
DNA 2: ATGGTTGCCCATGGGCTCAGGAGGGGACAG
B3: AAVS1 A30 (mixed)
RNA: GAGGGAGGAGAGAUGCCCGGAGAGUUGUAGCUCCCUUUCUCAUUUCGGAAACGAAAUGAGAACCGUUGCUACAAUAAGGCCGUCUGAAAAGAUGUGCCGCAACGCUCUGCCCCUUAAAGCUUCUGCUUUAAGGGGCAUCGUUUAUUUUUUU
DNA 1: AGGGAGGAGAGATGCCCGGAGAGGACCCAG
DNA 2: CTGGGTCCTCTCCGGGCATCTCTCCTCCCT
B4: AAVS1 A59 (mixed)
RNA: GCUGGGACUUGGCCAGACACUGGUUGUAGCUCCCUUUCUCAUUUCGGAAACGAAAUGAGAACCGUUGCUACAAUAAGGCCGUCUGAAAAGAUGUGCCGCAACGCUCUGCCCCUUAAAGCUUCUGCUUUAAGGGGCAUCGUUUAUUUUUUU
DNA 1: GCTGGGACTTGGCCAGACACTGAGGTCCAG
DNA 2: CTGGACCTCAGTGTCTGGCCAAGTCCCAGC
B5: AAVS1 A2 (mixed)
RNA: GUCAGCAUAGGGUGGCAAAGCCCGUUGUAGCUCCCUUUCUCAUUUCGGAAACGAAAUGAGAACCGUUGCUACAAUAAGGCCGUCUGAAAAGAUGUGCCGCAACGCUCUGCCCCUUAAAGCUUCUGCUUUAAGGGGCAUCGUUUAUUUUUUU
DNA 1: TCAGCATAGGGTGGCAAAGCCCAGGGCC
DNA 2: GGCCCTGGGCTTTGCCACCCTATGCTGA
B6: VEGFA V18 (mixed)
RNA: GAGGGGGGUGCCGAGGACCGAAGGUUGUAGCUCCCUUUCUCAUUUCGGAAACGAAAUGAGAACCGUUGCUACAAUAAGGCCGUCUGAAAAGAUGUGCCGCAACGCUCUGCCCCUUAAAGCUUCUGCUUUAAGGGGCAUCGUUUAUUUUUUU
DNA 1: AGGGGGGTGCCGAGGACCGAAGGGCACCAA
DNA 2: TTGGTGCCCTTCGGTCCTCGGCACCCCCCT
B7: VEGFA V60 (mixed)
RNA: B6 RNA with G3A, G7U, U9A, C11U, G13U, A14C, G15A, A17G, G20A, A21C
DNA 1: AAGGGTGAGTCTCAGGCCACAGGGACCCAA
DNA 2: TTGGGTCCCTGTGGCCTGAGACTCACCCTT
B8: EMX1 E1 (mixed)
RNA: GAAUGUGGUGCUUGAGAAGUGGAGUUGUAGCUCCCUUUCUCAUUUCGGAAACGAAAUGAGAACCGUUGCUACAAUAAGGCCGUCUGAAAAGAUGUGCCGCAACGCUCUGCCCCUUAAAGCUUCUGCUUUAAGGGGCAUCGUUUAUUUUUUU
DNA 1: AATGTGGTGCTTGAGAAGTGGATGGCCCAA
DNA 2: TTGGGCCATCCACTTCTCAAGCACCACATT
B9: AAVS1 A3 (mixed)
RNA: GCAGCGCAAAGUGACAAUGGCCGUUGUAGCUCCCUUUCUCAUUUCGGAAACGAAAUGAGAACCGUUGCUACAAUAAGGCCGUCUGAAAAGAUGUGCCGCAACGCUCUGCCCCUUAAAGCUUCUGCUUUAAGGGGCAUCGUUUAUUUUUUU
DNA 1: GCAGCGCAAAGTGACAATGGCCAGGGCC
DNA 2: GGCCCTGGCCATTGTCACTTTGCGCTGC
B10: AAVS1 A10 (mixed)
RNA: GGGUCUGAGGGUGGAGGGACUGGUUGUAGCUCCCUUUCUCAUUUCGGAAACGAAAUGAGAACCGUUGCUACAAUAAGGCCGUCUGAAAAGAUGUGCCGCAACGCUCUGCCCCUUAAAGCUUCUGCUUUAAGGGGCAUCGUUUAUUUUUUU
DNA 1: GGGTCTGAGGGTGGAGGGACTGGGGGCC
DNA 2: GGCCCCCAGTCCCTCCACCCTCAGACCC
B11: AAVS1 A7 (mixed)
RNA: GUCUGUCCCCUCCACCCCACAGUGUUGUAGCUCCCUUUCUCAUUUCGGAAACGAAAUGAGAACCGUUGCUACAAUAAGGCCGUCUGAAAAGAUGUGCCGCAACGCUCUGCCCCUUAAAGCUUCUGCUUUAAGGGGCAUCGUUUAUUUUUUU
DNA 1: TCTGTCCCCTCCACCCCACAGTGGGGCC
DNA 2: GGCCCCACTGTGGGGTGGAGGGGACAGA
B12: VEGFA V17 (mixed)
RNA: B11 RNA with U2C, U4G, U6G, C7A, C16U, A19U, A21C, G22U, U23G
DNA 1: CCGGGACCCTCCACTCCTCCTGGGCCCCAA
DNA 2: TTGGGGCCCAGGAGGAGTGGAGGGTCCCGG
B13: VEGFA V36 (mixed)
RNA: GAGGAAACGACCUGGGACCACCUGUUGUAGCUCCCUUUCUCAUUUCGGAAACGAAAUGAGAACCGUUGCUACAAUAAGGCCGUCUGAAAAGAUGUGCCGCAACGCUCUGCCCCUUAAAGCUUCUGCUUUAAGGGGCAUCGUUUAUUUUUUU
DNA 1: AGGAAACGACCTGGGACCACCTGTTCCCAA
DNA 2: TTGGGAACAGGTGGTCCCAGGTCGTTTCCT
B14: AAVS1 A41 (mixed)
RNA: GAGGACUGCAUGGGUCAGCACAGGUUGUAGCUCCCUUUCUCAUUUCGGAAACGAAAUGAGAACCGUUGCUACAAUAAGGCCGUCUGAAAAGAUGUGCCGCAACGCUCUGCCCCUUAAAGCUUCUGCUUUAAGGGGCAUCGUUUAUUUUUUU
DNA 1: AGGACTGCATGGGTCAGCACAGGCTGCCAA
DNA 2: TTGGCAGCCTGTGCTGACCCATGCAGTCCT
B15: AAVS1 A33 (mixed)
RNA: GUGAGAAUGGUGCGUCCUAGGUGGUUGUAGCUCCCUUUCUCAUUUCGGAAACGAAAUGAGAACCGUUGCUACAAUAAGGCCGUCUGAAAAGAUGUGCCGCAACGCUCUGCCCCUUAAAGCUUCUGCUUUAAGGGGCAUCGUUUAUUUUUUU
DNA 1: TGAGAATGGTGCGTCCTAGGTGTTCACCAG
DNA 2: CTGGTGAACACCTAGGACGCACCATTCTCA
B16: AAVS1 A46 (mixed)
RNA: GAAGCCUGAGCGCCUCUCCUGGGGUUGUAGCUCCCUUUCUCAUUUCGGAAACGAAAUGAGAACCGUUGCUACAAUAAGGCCGUCUGAAAAGAUGUGCCGCAACGCUCUGCCCCUUAAAGCUUCUGCUUUAAGGGGCAUCGUUUAUUUUUUU
DNA 1: AAGCCTGAGCGCCTCTCCTGGGCTTGCCAA
DNA 2: TTGGCAAGCCCAGGAGAGGCGCTCAGGCTT
B17: AAVS1 A4 (mixed)
RNA: GCUCUGACCUGCAUUCUCUCCCCGUUGUAGCUCCCUUUCUCAUUUCGGAAACGAAAUGAGAACCGUUGCUACAAUAAGGCCGUCUGAAAAGAUGUGCCGCAACGCUCUGCCCCUUAAAGCUUCUGCUUUAAGGGGCAUCGUUUAUUUUUUU
DNA 1: CTCTGACCTGCATTCTCTCCCCTGGGCC
DNA 2: GGCCCAGGGGAGAGAATGCAGGTCAGAG

target: T1, Nsp2Cas9 (Neisseria sp. WF04, UniProt A0A4Y9GBC9); assay: HEK293T cells; conditions: tags: NLS and HA tags, kept
T1 sequence: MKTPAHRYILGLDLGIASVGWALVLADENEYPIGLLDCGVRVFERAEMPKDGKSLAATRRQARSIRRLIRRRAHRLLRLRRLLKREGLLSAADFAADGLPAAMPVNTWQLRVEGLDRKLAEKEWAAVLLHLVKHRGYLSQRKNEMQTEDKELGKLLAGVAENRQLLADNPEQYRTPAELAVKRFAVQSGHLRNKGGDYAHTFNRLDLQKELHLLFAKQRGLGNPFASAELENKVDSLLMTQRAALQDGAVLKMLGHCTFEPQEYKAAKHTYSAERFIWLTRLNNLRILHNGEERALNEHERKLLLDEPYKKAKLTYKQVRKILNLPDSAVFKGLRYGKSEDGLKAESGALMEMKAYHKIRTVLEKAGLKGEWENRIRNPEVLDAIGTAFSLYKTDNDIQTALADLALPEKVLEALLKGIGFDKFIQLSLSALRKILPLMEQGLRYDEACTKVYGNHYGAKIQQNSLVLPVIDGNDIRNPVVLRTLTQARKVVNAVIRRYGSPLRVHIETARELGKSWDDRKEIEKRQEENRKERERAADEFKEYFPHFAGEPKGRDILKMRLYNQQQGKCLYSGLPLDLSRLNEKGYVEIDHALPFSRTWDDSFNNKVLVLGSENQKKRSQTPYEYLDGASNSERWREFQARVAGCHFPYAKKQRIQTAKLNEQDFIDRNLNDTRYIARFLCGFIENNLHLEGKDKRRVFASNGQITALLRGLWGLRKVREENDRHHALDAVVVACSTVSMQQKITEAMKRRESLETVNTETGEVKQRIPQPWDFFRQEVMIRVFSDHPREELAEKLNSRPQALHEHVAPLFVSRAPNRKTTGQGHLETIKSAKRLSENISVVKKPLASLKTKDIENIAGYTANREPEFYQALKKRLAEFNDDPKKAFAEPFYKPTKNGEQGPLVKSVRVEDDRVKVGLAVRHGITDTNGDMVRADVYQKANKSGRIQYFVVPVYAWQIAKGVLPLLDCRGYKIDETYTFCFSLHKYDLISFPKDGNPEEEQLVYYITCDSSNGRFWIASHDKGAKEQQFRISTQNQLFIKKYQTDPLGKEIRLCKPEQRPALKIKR

Binder | indel frequency
B1 | 19 % indels
B2 | 37 % indels
B3 | 12.9 % indels
B4 | 16.7 % indels
B5 | 14.1 % indels
B6 | 16.7 % indels
B7 | 12.1 % indels
B8 | 7.8 % indels
B9 | 7.81 % indels
B10 | 30.1 % indels
B11 | 17.4 % indels
B12 | 11.6 % indels
B13 | 14.6 % indels
B14 | 10.8 % indels
B15 | 17.1 % indels
B16 | 14.9 % indels
B17 | 6.61 % indels
